Infection of HFF with wt TB40-luc virus pre-incubated with PDGFR-α-Fc (one hour data for 1 substance are collected here from PMC5389851.

This assay deals with HCMV glycoprotein gO (virion, strain TB40) (human cytomegalovirus strain TB40 (endogenous in virions)).

In turn, “recombinant human PDGFR-α-Fc fusion protein (from UniProt P16234)” registered an infection of HFF with wt TB40-luc virus pre-incubated with PDGFR-α-Fc (one hour at 4°C; luciferase assay), residual infection; blocks gH/gL/gO of virions with PDGFR-α on HFF of 0.5%.
